This is an account of results in publication PMC5414365, “Activin A more prominently regulates muscle mass in primates than does GDF8” (Nature Communications, 2017).

Sequences and labels used below:
T1: activin AC (human, UniProt P08476 311-426; P55103 237-352)
T1 sequence (looked up) 1: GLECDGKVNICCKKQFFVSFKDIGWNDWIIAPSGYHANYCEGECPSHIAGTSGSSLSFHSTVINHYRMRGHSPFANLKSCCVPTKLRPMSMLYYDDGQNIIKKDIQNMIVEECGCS
T1 sequence (looked up) 2: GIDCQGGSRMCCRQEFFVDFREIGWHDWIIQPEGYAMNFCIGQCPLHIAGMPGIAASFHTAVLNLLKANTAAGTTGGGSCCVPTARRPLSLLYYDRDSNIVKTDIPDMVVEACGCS

T2: activin AB (human, UniProt P08476 311-426; P09529 293-407)
T2 sequence (looked up) 1: T1 sequence (looked up) 1
T2 sequence (looked up) 2: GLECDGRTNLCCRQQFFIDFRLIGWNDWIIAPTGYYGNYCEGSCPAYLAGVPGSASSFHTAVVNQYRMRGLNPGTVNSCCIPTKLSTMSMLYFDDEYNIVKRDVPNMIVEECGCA

T3: Growth and differentiation factor 8 (GDF8) (human, UniProt O14793 267-375)
T3 sequence (looked up): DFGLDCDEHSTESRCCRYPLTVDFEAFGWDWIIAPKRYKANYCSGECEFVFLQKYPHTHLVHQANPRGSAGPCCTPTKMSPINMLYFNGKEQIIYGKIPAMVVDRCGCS

B1: activin B (ligand, human, UniProt P09529 293-407, looked up)
chain: T2 sequence (looked up) 2
notes: human activin B: inhibin beta B chain, mature growth factor domain; source: bought: R&D Systems
B2: ActRIIB.hFc (soluble form of activin receptor type IIB fused to human IgG Fc fragment) (Fc fusion, UniProt Q13705 19-137, looked up)
chain: SGRGEAETRECIYYNANWELERTNQSGLERCEGEQDKRLHCYASWRNSSGTIELVKKGCWLDDFNCYDRQECVATEENPQVYFCCCEGNFCNERFTHLPEAGGPEVTYEPPPTAPTLLT
notes: activin receptor type IIB (ACVR2B; ActRIIB), soluble form; also called hActRIIB.hFc; ACVR2B; source: made at Regeneron
B3: activin A (ligand, human, UniProt P08476 311-426, looked up)
chain: T1 sequence (looked up) 1
notes: human activin A: inhibin beta A chain, mature growth factor domain; also called Act A; source: bought: R&D Systems
B4: GDF11 (ligand, human, UniProt O95390 299-407, looked up)
chain: NLGLDCDEHSSESRCCRYPLTVDFEAFGWDWIIAPKRYKANYCSGQCEYMFMQKYPHTHLVQQANPRGSAGPCCTPTKMSPINMLYFNDKQQIIYGKIPGMVVDRCGCS
notes: human GDF11, mature growth factor domain; source: bought: R&D Systems

In test [1] the target is B2. The experiment in a line: SPR; ligands at 40 to 0.78 nM injected over captured ActRIIB.hFc surface; Biacore T200, carboxymethyl dextran-coated CM4 sensor chip, 25 °C. As to conditions: both partners purified.
In the test “activin A” the target is B3. In words: cell-based or functional assay.
The target of test [2] is T1, activin AC. In words: cell-based or functional assay.
The target of test [3] is T2, activin AB. In words: cell-based or functional assay.
The target in the test “activin B” is B1. The experiment in a line: cell-based or functional assay.
The test “GDF11” has as its target B4. The experiment in a line: cell-based or functional assay.
Test [4] has as its target T3, Growth and differentiation factor 8 …. The experiment in a line: cell-based or functional assay.
In test [5] the target is T1, activin AC. The experiment in a line: SPR; ligands at 40 to 0.78 nM injected over captured ActRIIB.hFc surface; Biacore T200, carboxymethyl dextran-coated CM4 sensor chip, 25 °C. The conditions noted are these: both partners purified. In general terms: Surface plasmon resonance follows binding to a sensor surface in real time, without labels.
Test [6] concerns the target T2, activin AB. The test is described as above. The conditions noted are these: both partners purified.

In test [1], B1 gave a Kd of 0.0064 nM.
With B2, in the test with activin A, the “IC50 of ActRIIB.hFc against activin A-stimulated Smad2/3 activity (CAGAx12-luc reporter, A204 cells; fixed ligand concentration)” value worked out at 0.63 nM. In addition, in the test with activin AC [2], the “IC50 of ActRIIB.hFc against activin AC-stimulated Smad2/3 activity (CAGAx12-luc reporter, A204 cells; fixed ligand concentration)” value is 0.085 nM. Further, in the test with activin AB [3], the “IC50 of ActRIIB.hFc against activin AB-stimulated Smad2/3 activity (CAGAx12-luc reporter, A204 cells; fixed ligand concentration)” value came out at 0.39 nM. Further, in the test with activin B, the “IC50 of ActRIIB.hFc against activin B-stimulated Smad2/3 activity (CAGAx12-luc reporter, A204 cells; fixed ligand concentration)” value stood at 0.55 nM. Besides, in the test with GDF11, the “IC50 of ActRIIB.hFc against GDF11-stimulated Smad2/3 activity (CAGAx12-luc reporter, A204 cells; fixed ligand concentration)” value was found to be 0.21 nM. For the same molecule, the “IC50 of ActRIIB.hFc against GDF8-stimulated Smad2/3 activity (CAGAx12-luc reporter, A204 cells; fixed ligand concentration)” value in test [4] is 0.3 nM. For the same molecule, the Kd came to 5.9 nM with activin AC [5] and 0.0044 nM with activin AB [6].
The molecule B3 gave a Kd in test [1] of less than 0.0035 nM.
Still for that read-out and setting: in the case of B4 it was 0.014 nM.

For orientation: Kd means the equilibrium constant for the complex coming apart. Lower therefore signals tighter binding.
